# From patent US20210283252A1 (POLPHARMA BIOLOGICS S A, published 2021)
# B1: Natalizumab reference product (Referent batches) (antibody, human IgG4, kappa, V domains shown)
# VH: QVQLVQSGAEVKKPGASVKVSCKASGFNIKDTYIHWVRQAPGQRLEWMGRIDPANGYTKYDPKFQGRVTITADTSASTAYMELSSLRSEDTAVYYCAREGYYGNYGVYAMDYWGQGTLVTVSS
# VL: DIQMTQSPSSLSASVGDRVTITCKTSQDINKYMAWYQQTPGKAPRLLIHYTSALQPGIPSRFSGSGSGRDYTFTISSLQPEDIATYYCLQYDNLWTFGQGTKVEIKR
# What was measured:
# [1] = target: T1, HIS-tagged α4β1 integrin (UniProt P13612 34-977; P05556 21-728, limits assumed); assay: VCAM-1 competitive ELISA; coated VCAM-1 as competitor, HIS-tagged α4β1 integrin in solution; highest of 26 batches
# T1 construct: Soluble, HIS-tagged
# Method: (§1) Alternatively, one can also measure VCAM-1 competitive binding by ELISA. The aim of this assay is to test the ability of natalizumab to inhibit interaction of α₄β₁ integrin with its cognate receptor VCAM-1 protein in a dose-dependent manner. Constant amount of the coated VCAM-1 protein is incubated with serial dilutions of natalizumab in the presence of HIS-tagged α₄β₁ integrin. Solid-phase associated VCAM-1 and soluble natalizumab now compete for binding to α₄β₁, integrin. The higher the natalizumab concentration the more α4β1 integrin is inhibited from binding to VCAM-1. The highest signal result is observed when no natalizumab is present. Bound HIS-tagged α₄β₁ integrin is subsequently detected with a biotinylated anti-HIS-tag antibody, POD-conjugated Streptavidin and a TMB-substrate reaction at the end of the assay. Data are analyzed with 4PL fitting model. Final result is expressed as a Relative Potency (REP) of tested sample in relation to reference standard. The method variability was determined at the level of 7% coefficient variation (CV) of intermediate precision within the qualification exercise. Additionally accuracy, linearity and specificity were tested.
# [2] = target: T1, HIS-tagged α4β1 integrin; assay: VCAM-1 competitive ELISA; coated VCAM-1 as competitor, HIS-tagged α4β1 integrin in solution; lowest of 26 batches
# Method: as §1
# [3] = target: T2, α4β7 integrin (UniProt P13612 34-970; P26010 20-723, limits assumed); assay: MadCAM-1 competitive ELISA; coated α4β7 integrin, Fc-tagged MadCAM-1 as competitor, bound natalizumab detected; 24 batches, n=3
# Method: (§2) In still another alternative one can measure MadCAM-1 competitive binding by ELISA. The aim of this assay is to test the ability of natalizumab to inhibit interaction of α₄β₇ integrin with its cognate receptor—MadCAM-1 protein in a dose-dependent manner. Constant amount of the coated α₄β₇ integrin is incubated with serial dilutions of natalizumab in the presence of Fc-tagged MadCAM-1 receptor. Natalizumab and MadCAM-1 receptor now compete for binding to solid-phase associated α₄β₇ integrin. The higher the natalizumab concentration the more MadCAM-1 is inhibited from binding to α₄β₇ integrin. The lowest signal result is observed when no natalizumab is present. […] is subsequently detected with a POD-conjugated anti-human IgG antibody and a TMB-substrate reaction at the end of the assay. Data are analyzed with 4PL fitting model. Final result is expressed as a Relative Potency (REP) of tested sample in relation to reference standard. The method variability was determined at the level of 8% coefficient variation (CV) of intermediate precision within the qualification exercise. Additionally accuracy, linearity and specificity were tested.
# [4] = target: T1, HIS-tagged α4β1 integrin; assay: VCAM-1 competitive ELISA; coated VCAM-1 as competitor, HIS-tagged α4β1 integrin in solution; 26 batches, n=3
# Method: as §1
# [5] = target: T2, α4β7 integrin; assay: MadCAM-1 competitive ELISA; coated α4β7 integrin, Fc-tagged MadCAM-1 as competitor; highest of 24 batches
# Method: as §2
# [6] = target: T2, α4β7 integrin; assay: MadCAM-1 competitive ELISA; coated α4β7 integrin, Fc-tagged MadCAM-1 as competitor; lowest of 24 batches
# Method: as §2
binder,measurement,setting,value
B1,"Relative Potency (REP), max",[1],1.2 REP (relative to reference standard)
same,"Relative Potency (REP), min",[2],0.916 REP (relative to reference standard)
same,"Relative Potency (REP), average",[3],0.995 REP (relative to reference standard)
same,"Relative Potency (REP), average",[4],1.04 REP (relative to reference standard)
same,"Relative Potency (REP), max",[5],1.17 REP (relative to reference standard)
same,"Relative Potency (REP), min",[6],0.83 REP (relative to reference standard)
